The supplement of paper PMC7877785
± gives the uncertainty stated by the source.

Experiment: self-splicing fitness, log relative to wild type (ln ratio); higher = more splicing; Tetrahymena group I intron in knt gene, E. coli kanamycin selection, DiMSum; sequences stand for … in CUCUCU…GGAGGGAAAAGUUAUCAGGCAUGCACCUGGUAGCUAGUCUUUAAACCAAUAGAUUGCAUCGGUUUAAAAGGCAAGACCGUCAAAUUGCGGGAAAGGGGUCAACAGCCGUUCAGUACCAAGUCUCAGGGGAAACUUUGAGAUGGCCUUGCAAAGGGUAUGGUAAUAAGCUGACGGACAUGGUCCUAACCACGCAGCCAAGUCCUAAGUCAACAGAUCUUCUGUUGAUAUGGAUGCAGUUCACAGACUAAAUGUCGGUCGGGGAAGAUGUAUUCUUCUCAUAAGAUAUAGUCGGACCUCUCCUUAAUGGGAGCUAGCGGAUGAAGUGAUGCAACACUGGAGCCGCUGGGAACUAAUUUGUAUGCGAAAGUAUAUUGAUUAGUUUUGGAGUACUCGUGGUCG
Summary of the method: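 A randomised library covering all eight P1ex-region intron nucleotides was built with the intron in the knt kanamycin-resistance gene on pET-22b(+) and held in E. coli BL21(DE3). Cells were grown overnight at 37°C or 30°C on LB agar, with or without 25 μg/mL kanamycin, plus 100 μg/mL carbenicillin, 50 μM IPTG and 0.2% rhamnose, and pooled colonies were amplicon-sequenced on an Illumina HiSeq 2500. DiMSum fitness is the error-weighted combination of wild-type-normalised replicate fold changes, kanamycin versus none.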

Sequence	self-splicing fitness (ln) (30 °C)	self-splicing fitness (ln) (37 °C)
CCCAAGCAAUAUUACGUACG	-3.55 ± 0.21	-2.9 ± 0.15
CCCAAGCAAUAUUACGUCAA	-1.84 ± 0.14	-2.3 ± 0.19
CCCAAGCAAUAUUACGUCUC	-2.71 ± 0.15	-2.25 ± 0.26
CCCAAGCAAUAUUACGUGCC	-4.01 ± 0.29	-2.97 ± 0.34
CCCAAGCAAUAUUACGUUCU	-3.36 ± 0.14	-3.5 ± 0.22
CCCCAGCAAUAUUACGAACC	-4.18 ± 0.34	-2.46 ± 0.36
CCCCAGCAAUAUUACGAAGA	-2.91 ± 0.24	-2.52 ± 0.26
CCCCAGCAAUAUUACGAAGU	-3.84 ± 0.18	-3.21 ± 0.2
CCCCAGCAAUAUUACGAGCC	-3.75 ± 0.26	-2.54 ± 0.25
CCCCAGCAAUAUUACGAUAG	-3.16 ± 0.1	-3.25 ± 0.17
CCCCAGCAAUAUUACGAUUG	-3.58 ± 0.11	-2.72 ± 0.14
CCCCAGCAAUAUUACGCAUU	-4.14 ± 0.17	-2.81 ± 0.18
CCCCAGCAAUAUUACGCCAA	-2.64 ± 0.17	-2.7 ± 0.19
CCCCAGCAAUAUUACGCCGG	-4.29 ± 0.21	-1.88 ± 0.16
CCCCAGCAAUAUUACGCUUG	-3.52 ± 0.17	-3.06 ± 0.2
CCCCAGCAAUAUUACGGACU	-3.61 ± 0.14	-3.13 ± 0.19
CCCCAGCAAUAUUACGGCAU	-3.43 ± 0.14	-2.42 ± 0.14
CCCCAGCAAUAUUACGGGCA	-2.57 ± 0.13	-1.45 ± 0.11
CCCCAGCAAUAUUACGUCUA	-3.09 ± 0.14	-2.84 ± 0.2
CCCCAGCAAUAUUACGUGGC	-4.37 ± 0.14	-2.74 ± 0.12
CCCCAGCAAUAUUACGUUCC	-3.87 ± 0.24	-3.3 ± 0.3
CCCGAGCAAUAUUACGAAGG	–	-2.18 ± 0.23
CCCGAGCAAUAUUACGAAGU	-3.58 ± 0.18	-2.75 ± 0.24
CCCGAGCAAUAUUACGAGCA	-2.24 ± 0.27	-2.04 ± 0.25

Sequence	self-splicing fitness (ln) (30 °C)	self-splicing fitness (ln) (37 °C)
CCCGAGCAAUAUUACGAGGA	-2.48 ± 0.17	-0.976 ± 0.11
CCCGAGCAAUAUUACGAGUC	-2.67 ± 0.31	-1.69 ± 0.35
CCCGAGCAAUAUUACGAUAA	-1.81 ± 0.23	-2.73 ± 0.25
CCCGAGCAAUAUUACGAUCA	-2.79 ± 0.28	-2.98 ± 0.33
CCCGAGCAAUAUUACGAUCG	-3.58 ± 0.32	-2.71 ± 0.41
CCCGAGCAAUAUUACGAUGA	-3.45 ± 0.43	-2.4 ± 0.28
CCCGAGCAAUAUUACGAUUC	-4.01 ± 0.3	-2.13 ± 0.18
CCCGAGCAAUAUUACGCACU	-2.78 ± 0.25	-3 ± 0.27
CCCGAGCAAUAUUACGCCCU	–	-2.24 ± 0.33
CCCGAGCAAUAUUACGCCGA	-3.02 ± 0.39	-2.14 ± 0.36
CCCGAGCAAUAUUACGCGGU	-3.37 ± 0.16	-2.7 ± 0.17
CCCGAGCAAUAUUACGGACG	-3.62 ± 0.29	-0.706 ± 0.18
CCCGAGCAAUAUUACGGCCA	-2.88 ± 0.23	-3.57 ± 0.28
CCCGAGCAAUAUUACGGGAU	-3.31 ± 0.23	-2.08 ± 0.21
CCCGAGCAAUAUUACGGGCC	-3.99 ± 0.27	-2.26 ± 0.26
CCCGAGCAAUAUUACGGGGC	-3.75 ± 0.19	-2.74 ± 0.17
CCCGAGCAAUAUUACGGUAU	-3.43 ± 0.22	-3.01 ± 0.4
CCCGAGCAAUAUUACGUAAC	-3.43 ± 0.23	-3.05 ± 0.28
CCCGAGCAAUAUUACGUACC	-2 ± 0.21	–
CCCGAGCAAUAUUACGUACU	-3.49 ± 0.24	-1.24 ± 0.14
CCCGAGCAAUAUUACGUCAG	-3.49 ± 0.15	-2.51 ± 0.17
CCCGAGCAAUAUUACGUCGA	-4.11 ± 0.39	-3.16 ± 0.25
CCCGAGCAAUAUUACGUCUA	-3.33 ± 0.2	-2.42 ± 0.22
CCCGAGCAAUAUUACGUUAU	-3.87 ± 0.21	-2.62 ± 0.19
